Patent publication US10993986B2, “Pharmaceutical constructs with enhanced binding affinity with albumin” (Immunwork Inc., priority 2017, dated 2021)
Starred links: 1 amine or outer side, 2 acyl side, 3 side chain; linkers in the order of their positions; H or OH if unused. Non-standard residues stand in square brackets, D forms with d. Groups on a side chain read outwards from the residue. Primed or numbered codes have the meaning given here. No end group written: not given here. *: point of attachment. alkynylpropionyl = alkynylpropionyl (alkyne-ethyl) group on the N-terminal spacer, reacted by CuAAC with the azide; PEG4′ = PEGylated amino acid with four EG (ethylene glycol) repeats; C16 diacid = O=C(O)CCCCCCCCCCCCCCC(=O)*; γGlu = O=C(O)[C@H](CCC(=O)[*:2])N[*:1]; Palmitoyl = CCCCCCCCCCCCCCCC(=O)*; Azidoacetyl = [N-]=[N+]=NCC(=O)*; Aib = CC(C)(N)C(=O)O

Assays:
GLP-1 receptor = target: T1, GLP-1 receptor (Rattus norvegicus, UniProt P32301); assay: GLP-1R-mediated cAMP generation in INS-1 cells (cAMP ELISA kit); format: cell-based; settings: 100 nM, 2.5 mM glucose, 20 min, 37° C., FIG. 17
T1 construct: endogenous in cells; host or cells: rat INS-1 cells
T1 sequence (P32301 22-463): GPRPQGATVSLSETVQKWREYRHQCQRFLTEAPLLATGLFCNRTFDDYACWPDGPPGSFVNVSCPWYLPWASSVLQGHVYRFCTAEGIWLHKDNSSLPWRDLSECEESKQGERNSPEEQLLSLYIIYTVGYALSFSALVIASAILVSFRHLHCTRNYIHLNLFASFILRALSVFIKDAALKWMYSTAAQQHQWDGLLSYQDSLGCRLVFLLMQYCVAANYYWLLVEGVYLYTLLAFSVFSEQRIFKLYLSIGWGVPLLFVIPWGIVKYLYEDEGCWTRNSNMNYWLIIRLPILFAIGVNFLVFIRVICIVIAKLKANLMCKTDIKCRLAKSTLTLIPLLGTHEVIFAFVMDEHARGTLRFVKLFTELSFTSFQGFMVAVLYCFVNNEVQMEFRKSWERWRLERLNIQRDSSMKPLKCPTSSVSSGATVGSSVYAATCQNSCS
Method: Briefly, on day one, 2×10^5 INS-1 cells were plated in each well of a 24-well plate (ThermoFisher Scientific, Waltham, USA) with 500 μL/well culture medium. […] 100 nM liraglutide, as a positive control for cAMP generation, was added to control wells and incubated for 20 min at 37° C. Glucose at lower concentration (2.5 mM) was used as a negative control, and glucose at higher concentration (16 mM) was used as a control for glucose-induced cAMP generation. After 20 minutes of incubation, the medium was aspirated and 200 μl of 0.1N HCl was added to each well. The cells were scraped off from the surface by cell scraper and subjected to centrifugation at 1,000×g for 10 min at 4° C. The supernatant was transferred to new tubes and used for experiment in a 96-well plate. Cyclic AMP levels in the cells were measured at wavelength of 420 nm using SpectraMax M2 microplate reader (Molecular devices, San Jose, USA).

INS-1 cells = assay: Alamar Blue cell viability / proliferation of INS-1 cells; format: cell-based, rat; settings: 30 mM glucose, 100 nM, 24, 48 and 72 hours, compared with liraglutide, FIG. 19
Method: The cultured INS-1 cells were seeded at a density of 2×10^4 cells/well into 96-well plate in culture medium containing 10% […] bovine serum. After 48 hours, the cells were further incubated for another 24 hours for serum starvation. […] The cells cultured in normal medium being used as a control.
After being incubated for 24, 48 and 72 hours, the cell viability was then determined by Alamar Blue cell viability reagent kit (Invitrogen) in accordance with the manufacturer's instruction.
The cell proliferation ratio (see FIG. 19) was a ratio of the cell viability at multiple time points compared to 0 hour.

caspase-3 = assay: Western blot of activated caspase-3 expression in INS-1 cells; format: cell-based, rat; settings: xx mM glucose, normalized against β-actin, FIGS. 18A/18B
Excerpt: Cleaved caspase-3 is a key executor in the apoptotic process. In this example, the expression of caspase-3 was detected using western blot analysis.
For the immunoblot analysis, proteins were separated using SDS-PAGE, and then transferred onto a polyvinylidene fluoride (PVDF) membrane. The membrane was probed using antibodies against caspase-3 (Cell Signaling Technology, Danvers, USA), followed by horseradish peroxidase-(HRP) conjugated secondary antibodies (Epitomics, Burlingame, USA). The membrane was visualized using an enhanced chemiluminescence system (GE Healthcare Life Sciences, Buckinghamshire, USA). The levels of protein expression were normalized against β-actin expression.

[1] = in vivo; cited from earlier work

| Substance | cellular cAMP level (GLP-1 receptor) | cell viability (cell proliferation ratio vs 0 hour) (INS-1 cells) | expression level of caspase-3 (caspase-3) | serum half-life [1] [h] |
| --- | --- | --- | --- | --- |
| GLP-1-Aib^8-EG4-2E-2FA-C16-acid: Aib-substituted GLP-1 agonist having an azide group coupled via CuAAC to alkyne-EG4-2E-2FA-C16-acid (Example 11) (peptide H[Aib]EGTFTSDVSSYLEGQAAK([γGlu-Azidoacetyl])LEFIAWLVRGRG; chain alkynylpropionyl-[PEG4′]K([γGlu-C16 diacid])[PEG4′]K([γGlu-C16 diacid])-OMe; also: triazole at chain A 20 to a chain's N-terminus) | elicited the expected rise in cellular cAMP level | significantly improved |  |  |
| GLP-1-Aib^8-EG4-2E-2FA-C16: Aib-substituted GLP-1 agonist having an azide group coupled via CuAAC to alkyne-EG4-2E-2FA-C16 (Example 10) (peptide H[Aib]EGTFTSDVSSYLEGQAAK([γGlu-Azidoacetyl])LEFIAWLVRGRG; chain alkynylpropionyl-[PEG4′]K([γGlu-Palmitoyl])[PEG4′]K([γGlu-Palmitoyl])-OMe; also: triazole at chain A 20 to a chain's N-terminus) | elicited the expected rise in cellular cAMP level | significantly improved | can effectively reduce the expression level of caspase-3 |  |
| albiglutide |  |  |  | 96 to 170 |
